From patent publication US20230322922A1

Tests used:
[1] = molecular target: human HER2 expressed on target cells (BT-474, SKOV3, MCF-7, human cardiomyocytes) (human) (UniProt P04626); test: cell-based or functional assay
human CD3 (human) = test: surface plasmon resonance, equilibrium binding analysis
human HER2 (human) = human HER2 (human) (UniProt P04626); test: as above
[2] = molecular target: cynomolgus monkey HER2 (cynomolgus monkey); test: as above
[3] = molecular target: cynomolgus monkey CD3 (cynomolgus monkey); test: as above

| Substance | T cell-mediated cytotoxicity against BT474 cells (PBMC 1:1, 48 h, CellTiter-Glo), EC50 [1] [nM] | T cell-mediated cytotoxicity against SKOV3 cells (PBMC 1:1, 48 h, CellTiter-Glo), EC50 [1] [nM] | Kd (human CD3 (human)) [nM] | fold reduction of affinity by masking, against AMX-818(PAT) (human CD3 (human)) [fold] | Kd (human HER2 (human)) [nM] | Kd [2] [nM] | fold reduction of affinity by masking, against AMX-818(PAT) [2] [fold] | Kd [3] [nM] | fold reduction of affinity by masking, against AMX-818(PAT) [3] [fold] | Jurkat NFAT-Luciferase reporter T cell activation in the presence of BT-474 cells, EC50 [1] [nM] | cytotoxicity against BT-474 tumor cells with PBMC effectors (1:1), IC50 [1] [nM] |
| --- | --- | --- | --- | --- | --- | --- | --- | --- | --- | --- | --- |
| AMX-818 (bispecific antibody) | 49.4 | 44.5 | 160 | 6 | 24.9 | 20.1 | 10 | 140 | 6 | – | – |
| AMX-818(PAT) (bispecific antibody) | 0.0048 | 0.0034 | 26.3 | – | – | 2 | – | 21.5 | – | 0.07 | 0.005 to 0.011 |
